Article PMC6637110

Molecular target: its substrates (DNA-bound substrates of p97 on plasmid isolated from extract with p97i)
Experiment: pull-down; dilution experiment: plasmid incubated 180 minutes in extract with CB-5083, isolated by plasmid pull-down, washed, resuspended in 100 volumes of ELB with or without 5 mM ATP, 21 °C; p97 retained on bead-bound DNA by Western blot over time

For “p97 (endogenous, Xenopus egg extract) (from UniProt P23787 1-805) (natural protein)”, the decrease of DNA-bound p97 within 180 minutes, with ATP was 90% and the decrease of DNA-bound p97 within 180 minutes, without ATP was 70%.
